# From PMC4737498, “An Anti-proteome Nanobody Library Approach Yields a Specific Immunoassay for Trypanosoma congolense Diagnosis Targeting Glycosomal Aldolase” (PLoS Neglected Tropical Diseases, 2016)
# Tests used:
# Settings in all cases: one partner purified
# [1] = target: T1, native T. congolense glycosomal fructose-1,6-bisphosphate aldolase (Trypanosoma congolense (TC13 soluble …, UniProt G0UWE7)); assay: ELISA; homologous sandwich Nb474-ELISA, capture step: Nb474H coated on Nunc plate (0.02 μg/ml in PBS, overnight 4°C), T. congolense soluble proteome, infected sera or secretome added 1 h at 22°C
# T1 construct: glycosomal fructose-1,6-bisphosphate aldolase of Trypanosoma congolense, UniProtKB G0UWE7; band at about 40 kDa identified by mass spectrometry; Samples came from different strains (TC13, IL3000 and others); also called TcoALD; native TcoALD; source: endogenous, T. congolense soluble proteome (TC13), sera of T. congolense infected mice, T. congolense IL3000 secretome; in fixed T. congolense …
# [2] = target: T2, recombinant T. congolense glycosomal aldolase (Trypanosoma congolense IL3000, UniProt G0UWE7); assay: ELISA; homologous sandwich (Nb474H-Nb474B), capture step: crude soluble proteins of E. coli expressing recombinant aldolase (10 μg/well) on coated Nb474H
# T2 construct: His6-tag with a proximal tobacco etch virus cleavage site; Construct synthesised by GenScript; also called TcoALD; recombinant TcoALD; source: E. coli BL21(DE3), pET-21b(+), in crude lysate (18 h post-induction)
# [3] = target: T2, recombinant T. congolense glycosomal …; assay: ELISA; homologous sandwich (Nb474H-Nb474B), detection step: Nb474B on recombinant aldolase captured from crude E. coli lysate by coated Nb474H
# [4] = target: T1, native T. congolense glycosomal …; assay: ELISA; homologous sandwich Nb474-ELISA, detection step: Nb474B (0.02 μg/ml, 1 h at 22°C) on antigen captured from T. congolense samples by coated Nb474H; strep-HRP and TMB
Binder,binding result [1],binding result [2],binding result [3],binding result [4]
"Nb474H (His6-tagged Nanobody 474) (VHH, from an alpaca immunised with T. congolense TC13 soluble proteome; also called capturing Nb; His6-tag Nb; source: E. coli WK6 (pHEN6c), periplasmic extract, purified (His-Select Nickel, size exclusion chromatography)) VHH: QVQLQESGGGLVQPGGSLRLSCAASETALTYYAIGWFRQAPGKEREGVSCISRINSGSGARTDYADSVKGRFTISRDDAKNTVTLQMNSLEPEDTARYYCALDTTDRYDSANGRYYCTISSDTYDYWGQGTQVTVSS",binds,binds,–,–
"Nb474B (biotinylated Nanobody 474) (VHH, same Nb as m1; also called detecting Nb; detection Nb) VHH: QVQLQESGGGLVQPGGSLRLSCAASETALTYYAIGWFRQAPGKEREGVSCISRINSGSGARTDYADSVKGRFTISRDDAKNTVTLQMNSLEPEDTARYYCALDTTDRYDSANGRYYCTISSDTYDYWGQGTQVTVSS",–,–,binds,binds
